The term Kd denotes the free concentration of one partner at which half of the binding sites on the other are occupied at equilibrium, for simple one-to-one binding. Read a high Kd as weaker binding.

Read-outs that look alike come from different tables or passages of the source.

The target in assay [1] is T1, Protein G (group C and G Streptococci, UniProt P19909 303-427).
T1 construct: Two commercial resins used (Sepharose 4 Fast Flow for capture-elution, HiTrap HP for gradient); also called Protein G Sepharose™ 4 Fast Flow resin; HiTrap™ Protein G HP column
The assay is described as follows: Protein G gradient mode chromatography (HiTrap Protein G HP column), A280 trace against pH gradient.

The target in assay [2] is T1, Protein G. The description is as above. The source holds these as a separate data set.
For assay [3], the target named is T1, Protein G. The description is as above. The source holds these as a separate data set.
Assay [4] concerns the target T2, human FcRn (human, UniProt P55899 24-297; P61769 21-119).
T2 construct: range 24-297;range 21-119; Alpha chain non-covalently associated with beta2-microglobulin; used as analyte at pH 6.0; also called human neonatal Fc receptor; soluble form of the extracellular region of the human FcRn
Kind of assay: SPR on human FcRn at pH 6.0, steady state KD expressed as ratio to the unmodified IGHG1 control.
Method: (§1) Growth medium was PowerCHO2 (Lonza Ltd, Basel, Switzerland). Prior purification, post-production supernatants were conditioned with 0.2M NaH₂PO₄, 0.1M NaCl pH6.0 in order to adjust pH to 6.0. FcRn was purified using human IgG sepharose6 Fast flow (GE Healthcare Europe GmbH, Glattbrugg, Switzerland) and eluted with PBS pH7.4. Measurements were recorded on a BIAcore™ 2000 instrument (GE Healthcare Europe GmbH, Glattbrugg, Switzerland). Each Immunoglobulin variant was immobilized on a CM5 sensor chip (GE Healthcare Europe GmbH, Glattbrugg, Switzerland) via amine coupling using a standard protocol provided by the manufacturer to reach an approximate response of 1500 RUs. […] After 3 min of dissociation, PBS pH7.4 was injected for 1 min at 30 μl/min for surface regeneration. KD values were determined using a steady state affinity model. Equilibrium constants were determined by fitting the steady-state response versus the concentration of human FcRn over a range of concentrations to a 1:1 binding model (stoichiometry (n)=1). Measurements were performed in triplicate, and included zero-concentration samples for referencing. Both Chi2 and residual values were used to evaluate the quality of a fit between the experimental data and individual binding models.
To fit this purpose, each homo-dimeric immunoglobulin was directly coupled onto a CM5 sensor chip. A soluble form of the extracellular region of the human FcRn consisting of its alpha chain non-covalently associated with beta2-microglobulin protein was prepared and used as analyte.

For assay [5], the target named is T2, human FcRn. The assay is described as follows: SPR (BIAcore 2000): immunoglobulin amine-coupled to a CM5 chip, human FcRn injected as analyte at pH 6.0, steady state affinity model. (SPR reads the build-up and loss of mass on a sensor chip optically.)
Method: as §1
To fit this purpose, each homo-dimeric immunoglobulin was directly coupled onto a CM5 sensor chip. […]
Assay [6] has as its target T3, MabSelect™ Protein A (Staphylococcus aureus, UniProt P38507 37-327).
T3 construct: also called HiTrap™ MabSelect™ Protein A column; MabSelect™ resin
Kind of assay: Protein A gradient mode chromatography (HiTrap MabSelect column), A280 trace against pH gradient.

T2 sequence (P55899 24-297 limits assumed, form in doubt, chain 1 of 2): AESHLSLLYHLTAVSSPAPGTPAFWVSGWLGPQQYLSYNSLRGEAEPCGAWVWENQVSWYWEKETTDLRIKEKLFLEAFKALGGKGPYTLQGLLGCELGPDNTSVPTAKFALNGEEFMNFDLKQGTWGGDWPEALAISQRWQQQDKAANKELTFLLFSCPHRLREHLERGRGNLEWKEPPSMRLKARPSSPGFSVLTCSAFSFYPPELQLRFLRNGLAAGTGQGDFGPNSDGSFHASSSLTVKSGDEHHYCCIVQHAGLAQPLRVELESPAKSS
T2 sequence (P61769 21-119 limits assumed, form in doubt, chain 2 of 2): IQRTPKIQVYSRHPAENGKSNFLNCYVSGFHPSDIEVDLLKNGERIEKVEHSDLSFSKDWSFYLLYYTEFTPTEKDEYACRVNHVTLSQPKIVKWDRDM

B1: Fc M252A/E380A/E382A/Y436A/Q438A (other)
chain: DKTHTCPPCPAPELLGGPSVFLFPPKPKDTLAISRTPEVTCVVVDVSHEDPEVKFNWYVDGVEVHNAKTKPREEQYNSTYRVVSVLTVLHQDWLNGKEYKCKVSNKALPAPIEKTISKAKGQPREPQVYTLPPSRDELTKNQVSLTCLVKGFYPSDIAVAWASNGQPENNYKTTPPVLDSDGSFFLYSKLTVDKSRWQQGNVFSCSVMHEALHNHATAKSLSLSPGK
notes: Homo-dimeric human IGHG1 Fc variant, EU numbering
Consider B1, for which, in assay [1], the binding result is reported as “no binding”.

B2: Fc S426M/M428G/H433D/N434A (other)
chain: DKTHTCPPCPAPELLGGPSVFLFPPKPKDTLMISRTPEVTCVVVDVSHEDPEVKFNWYVDGVEVHNAKTKPREEQYNSTYRVVSVLTVLHQDWLNGKEYKCKVSNKALPAPIEKTISKAKGQPREPQVYTLPPSRDELTKNQVSLTCLVKGFYPSDIAVEWESNGQPENNYKTTPPVLDSDGSFFLYSKLTVDKSRWQQGNVFSCMVGHEALDAHYTQKSLSLSPGK
notes: as for B1
As for B2, the binding result in assay [2] is given as “no binding”.

B3: Fc S254M/E380M/E382L/S426M/M428G (other)
chain: DKTHTCPPCPAPELLGGPSVFLFPPKPKDTLMIMRTPEVTCVVVDVSHEDPEVKFNWYVDGVEVHNAKTKPREEQYNSTYRVVSVLTVLHQDWLNGKEYKCKVSNKALPAPIEKTISKAKGQPREPQVYTLPPSRDELTKNQVSLTCLVKGFYPSDIAVMWLSNGQPENNYKTTPPVLDSDGSFFLYSKLTVDKSRWQQGNVFSCMVGHEALHNHYTQKSLSLSPGK
notes: as for B1
B3: the binding result in assay [3] is listed as “no binding”.

B4: Anti-hCD19 FAB-Fc S426M/M428G/H433D/N434A (antibody, human IgG1, kappa)
heavy chain: QVQLVQSGGGVVQPGRSLRLSCAASGVSLPDYGVSWVRQAPGKGLEWVAVIWGSETTYYNSALKSRFTISRDNSKNTLYLQMNSLRAEDTAVYYCAKHYYYGGSYAMDYWGQGTLVTVSSASTKGPSVFPLAPSSKSTSGGTAALGCLVKDYFPEPVTVSWNSGALTSGVHTFPAVLQSSGLYSLSSVVTVPSSSLGTQTYICNVNHKPSNTKVDKKVEPKSCDKTHTCPPCPAPELLGGPSVFLFPPKPKDTLMISRTPEVTCVVVDVSHEDPEVKFNWYVDGVEVHNAKTKPREEQYNSTYRVVSVLTVLHQDWLNGKEYKCKVSNKALPAPIEKTISKAKGQPREPQVYTLPPSRDELTKNQVSLTCLVKGFYPSDIAVEWESNGQPENNYKTTPPVLDSDGSFFLYSKLTVDKSRWQQGNVFSCMVGHEALDAHYTQKSLSLSPGK
light chain: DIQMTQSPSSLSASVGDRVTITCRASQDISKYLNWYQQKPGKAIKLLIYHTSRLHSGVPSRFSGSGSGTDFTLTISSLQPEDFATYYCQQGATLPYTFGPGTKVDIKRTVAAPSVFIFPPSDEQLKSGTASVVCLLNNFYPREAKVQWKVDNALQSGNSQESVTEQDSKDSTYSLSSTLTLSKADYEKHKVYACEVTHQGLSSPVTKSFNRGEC
As to B4, the “KD ratio (IGHG1/mutant)” value in assay [4] amounted to 0.48.

B5: anti-hCD19 FAB-Fc 133 (antibody, human IgG1, kappa)
heavy: QVQLVQSGGGVVQPGRSLRLSCAASGVSLPDYGVSWVRQAPGKGLEWVAVIWGSETTYYNSALKSRFTISRDNSKNTLYLQMNSLRAEDTAVYYCAKHYYYGGSYAMDYWGQGTLVTVSSASTKGPSVFPLAPSSKSTSGGTAALGCLVKDYFPEPVTVSWNSGALTSGVHTFPAVLQSSGLYSLSSVVTVPSSSLGTQTYICNVNHKPSNTKVDKKVEPKSCDKTHTCPPCPAPELLGGPSVFLFPPKPKDTLMISRTPEVTCVVVDVSHEDPEVQFKWYVDGVEVHNAKTKPREEQYNSTFRVVSVLTVLHQDWLNGKEYKCKVSNKALPAPIEKTISKTKGQPREPQVYTLPPSREEMTKNQVSLTCLVKGFYPSDIAVEWESSGQPENNYNTTPPMLDSDGSFFLYSKLTVDKSRWQQGNIFSCSVMHEALHNRFTQKSLSLSPGK
light: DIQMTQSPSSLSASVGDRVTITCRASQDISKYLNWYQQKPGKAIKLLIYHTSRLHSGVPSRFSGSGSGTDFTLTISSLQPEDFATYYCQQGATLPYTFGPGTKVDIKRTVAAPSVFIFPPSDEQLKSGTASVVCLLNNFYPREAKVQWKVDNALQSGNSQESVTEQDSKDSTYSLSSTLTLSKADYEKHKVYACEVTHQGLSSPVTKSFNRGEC
notes: copies: 2 + 2
For the molecule B5, the “KD ratio (IGHG1/mutant)” value in assay [4] was determined as 0.73. This molecule yielded a Kd in assay [5] of 2680 nM.

B6: anti-hCD19 FAB-Fc 113 (antibody, human IgG1, kappa)
heavy: QVQLVQSGGGVVQPGRSLRLSCAASGVSLPDYGVSWVRQAPGKGLEWVAVIWGSETTYYNSALKSRFTISRDNSKNTLYLQMNSLRAEDTAVYYCAKHYYYGGSYAMDYWGQGTLVTVSSASTKGPSVFPLAPSSKSTSGGTAALGCLVKDYFPEPVTVSWNSGALTSGVHTFPAVLQSSGLYSLSSVVTVPSSSLGTQTYICNVNHKPSNTKVDKKVEPKSCDKTHTCPPCPAPELLGGPSVFLFPPKPKDTLMISRTPEVTCVVVDVSHEDPEVKFNWYVDGVEVHNAKTKPREEQYNSTYRVVSVLTVLHQDWLNGKEYKCKVSNKALPAPIEKTISKAKGQPREPQVYTLPPSREEMTKNQVSLTCLVKGFYPSDIAVEWESSGQPENNYNTTPPMLDSDGSFFLYSKLTVDKSRWQQGNIFSCSVMHEALHNRFTQKSLSLSPGK
light: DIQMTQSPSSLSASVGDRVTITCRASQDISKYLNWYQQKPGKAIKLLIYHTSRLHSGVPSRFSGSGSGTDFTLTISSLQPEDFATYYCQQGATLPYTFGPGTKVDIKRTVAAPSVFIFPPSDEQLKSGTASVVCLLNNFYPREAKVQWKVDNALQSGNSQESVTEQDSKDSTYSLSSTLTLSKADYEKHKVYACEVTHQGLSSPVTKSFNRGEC
notes: copies: 2 + 2
With B6, the “KD ratio (IGHG1/mutant)” value in assay [4] stood at 0.76.

B7: Anti-HER2 FAB R19G/T57A/Y59A (Fab)
heavy chain: EVQLVESGGGLVQPGGSLGLSCAASGFNIKDTYIHWVRQAPGKGLEWVARIYPTNGYARAADSVKGRFTISADTSKNTAYLQMNSLRAEDTAVYYCSRWGGDGFYAMDYWGQGTLVTVSSASTKGPSVFPLAPSSKSTSGGTAALGCLVKDYFPEPVTVSWNSGALTSGVHTFPAVLQSSGLYSLSSVVTVPSSSLGTQTYICNVNHKPSNTKVDKKVEPKSC
light chain: not shown
notes: also called combination R19G/T57A/Y59A
With B7, the binding result in assay [6] is “no binding”.
